Molecular target: Human Hsp90β (human) (UniProt P08238)
Assay: SEC

Chain of Human Hsp90β, P08238 1-724 (natural protein; other documents disagree on this pair) (P08238 whole entry): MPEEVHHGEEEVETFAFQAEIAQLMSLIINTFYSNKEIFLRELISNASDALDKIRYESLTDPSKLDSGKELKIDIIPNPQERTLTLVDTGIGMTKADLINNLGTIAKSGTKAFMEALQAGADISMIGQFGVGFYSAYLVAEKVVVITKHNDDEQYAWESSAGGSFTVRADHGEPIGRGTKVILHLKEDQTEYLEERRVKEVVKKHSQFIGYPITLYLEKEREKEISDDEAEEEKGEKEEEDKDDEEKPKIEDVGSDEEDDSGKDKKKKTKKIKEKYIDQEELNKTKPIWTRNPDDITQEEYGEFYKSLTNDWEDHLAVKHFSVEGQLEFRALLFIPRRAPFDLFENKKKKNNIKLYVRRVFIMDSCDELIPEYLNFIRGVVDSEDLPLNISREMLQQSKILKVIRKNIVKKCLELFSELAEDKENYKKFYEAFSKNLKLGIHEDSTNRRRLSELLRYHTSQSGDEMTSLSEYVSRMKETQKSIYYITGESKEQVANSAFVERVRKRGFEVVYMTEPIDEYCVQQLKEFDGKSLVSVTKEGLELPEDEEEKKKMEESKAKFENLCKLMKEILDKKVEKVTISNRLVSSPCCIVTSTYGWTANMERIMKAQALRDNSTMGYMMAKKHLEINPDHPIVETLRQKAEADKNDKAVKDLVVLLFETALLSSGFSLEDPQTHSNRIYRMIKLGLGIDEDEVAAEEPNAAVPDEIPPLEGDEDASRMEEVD

Human Hsp90β, P08238 1-724 (natural protein; other documents disagree on this pair)
stoichiometry N: 2

Source: article PMC2094093
